In the oligonucleotide strings, read from the 5' end, every base follows the letter of its sugar. An asterisk marks phosphorothioate; unmarked linkages are phosphodiester. Other units and linkages are bracketed, terminal groups are in braces. A string of capitals states the bases alone. m = 2'-O-methyl; r = 2'-OH (RNA)
What was measured:
[1] = system: on-target site and candidate off-target sites; test: Validation of candidate off-target sites in primary human hepatocytes; assay type: cell-based; conditions: for editing efficiency at the on-target site: gRNA + ABE8.8 mRNA
Protocol: Several candidate off-target sites were analyzed for off-target editing in human primary hepatocytes.

human TTR gene = test: Base editing in primary human hepatocytes (gRNA + ABE8.8 mRNA transfection, NGS of amplicons); assay type: cell-based; conditions: for Human hepatocytes- Editing % 625, rep 1 / Human hepatocytes- Editing % 625, rep 2: 625 ng/RNA/mL; for Human hepatocytes- Editing % 625, rep 1 / Human hepatocytes- Editing % 625, rep 2 / Human hepatocytes- Editing % 1250, rep 1 / Human hepatocytes- Editing % 1250, rep 2 / Human hepatocytes- Editing % 2500, rep 1 / Human hepatocytes- Editing % 2500, rep 2: gRNA + ABE8.8 mRNA 1:1; for Human hepatocytes- Editing % 1250, rep 1 / Human hepatocytes- Editing % 1250, rep 2: 1250 ng/RNA/mL; for Human hepatocytes- Editing % 2500, rep 1 / Human hepatocytes- Editing % 2500, rep 2: 2500 ng/RNA/mL; for editing activity (percent splice editing) in human hepatocytes: primary human hepatocytes, ABE8.8 mRNA 1:1, three days after transfection
Source text: In this example, gRNA sequences were identified that permit ABE8.8 (and other ABE variants containing Streptococcus pyogenes Cas9, such as ABE7.10, or another Cas protein that can use the NGG PAM) to either: 1) disrupt the start codon, and/or 2) disrupt splice sites, whether donors or acceptors, via A→G editing within its editing window (roughly positions 4 to 7 in the 20-nt protospacer region of DNA). Five sequences were identified throughout the human TTR gene that disrupt TTR expression (Table 8). gRNAs were synthesized matching each of the protospacer sequences and otherwise conforming to the standard 100-nt Streptococcus pyogenes CRISPR gRNA sequence, with each gRNA molecule having a minimal degree of chemical modifications (specified in Table 8). Each of the gRNAs was co-transfected with an equivalent amount of in vitro transcribed ABE8.8 mRNA (1:1 ratio by molecular weight) into primary human hepatocytes via MessengerMax reagent (Lipofectamine), using various dilutions (2500,1250, 625 ng/RNA/mL) to assess for editing activity at different concentrations of test article.
(§1) For orthogonal protospacer sequences of the corresponding cynomolgus monkey TTR gene sequence, each gRNA was also transfected with an equivalent amount of ABE8.8 mRNA (1:1 ratio by molecular weight) into primary cynomolgus hepatocytes at 5000, 2500, 1250, 625, 312.5, and 156.25 ng/RNA/mL. The mRNA, and corresponding amino acid, sequence of the ABE8.8 (MA004) used in shown below in Table 18. Three days after transfection, genomic DNA was harvested from the hepatocytes, and assessed for base editing with next-generation sequencing of PCR amplicons generated around the target splice site. […] See FIGS. 5A-5C, FIG. 6, and Tables 9-10.

[2] = target: purified cyno TTR protein (Abcam, ab239566) (cyno (Macaca fascicularis)) (UniProt Q8HXW1); test: sandwich ELISA; known concentrations of purified cyno TTR run on the human TTR kit, read against the human TTR standards
[3] = system: cynomolgus monkey TTR gene; test: Base editing in primary cynomolgus hepatocytes (gRNA + ABE8.8 mRNA transfection, NGS); assay type: cell-based; conditions: for Cyno hepatocytes- Editing % 156.25: 156.25 ng/RNA/mL; for Cyno hepatocytes- Editing % 156.25 / Cyno hepatocytes- Editing % 312.5 / Cyno hepatocytes- Editing % 625 / Cyno hepatocytes- Editing % 1250 / Cyno hepatocytes- Editing % 2500 / Cyno hepatocytes- Editing % 5000: gRNA + ABE8.8 mRNA 1:1; for Cyno hepatocytes- Editing % 312.5: 312.5 ng/RNA/mL; for Cyno hepatocytes- Editing % 625: 625 ng/RNA/mL; for Cyno hepatocytes- Editing % 1250: 1250 ng/RNA/mL; for Cyno hepatocytes- Editing % 2500: 2500 ng/RNA/mL; for Cyno hepatocytes- Editing % 5000: 5000 ng/RNA/mL; for editing activity in cynomolgus primary hepatocytes: ABE8.8 mRNA 1:1, three days after transfection
Protocol: as §1

transthyretin (TTR) gene = test: Guide RNA screen in HEK293T cells: splice site disruption by base editors and bhCas12b nuclease (Example 5); assay type: cell-based, human; conditions: editor mRNA + sgRNA
Protocol: The guide RNAs listed in Table 1 were screened for use in editing the transthyretin (TTR) gene by disrupting splice sites (FIG. 29A-29C) or using a bhCas12b nuclease strategy (FIG. 30). 15 total guide RNAs were screened. The screen was performed in HEK293T cells using based editors and bhCas12b delivered as mRNA and the sgRNAs. The guide RNAs sgRNA_361 and sgRNA_362 worked well in splice site disruption (FIGS. 29A-29C) using ABE and/or BE4. Several of the gRNAs functioned well as bhCas 12b nuclease gRNAs.
Cells were cultured at 37° C. with 5% CO2. HEK293T cells [CLBTx013, American Type Cell Culture Collection (ATCC)] were cultured in Dulbecco's modified Eagles medium plus Glutamax (10566-016, Thermo Fisher Scientific) with 10% (v/v) fetal bovine serum (A31606-02, Thermo Fisher Scientific). Cells were tested negative for mycoplasma after receipt from supplier.
HEK293T cells were seeded onto 48-well well Poly-D-Lysine treated BioCoat plates (Corning) at a density of 35,000 cells/well and transfected 18-24 hours after plating. Cells were counted using a NucleoCounter NC-200 (Chemometec). A solution was prepared containing Opti-MEM reduced serum media (ThermoFisher Scientific), the base editor, nuclease, or control mRNA, and sgRNA. The solution was combined with Lipofectamine MessengerMAX (ThermoFisher) in Opti-MEM reduced serum media and left to rest at room temperature for 15 min. […]

[4] = GA459 On-target site (SEQ ID NO: 468)
[5] = GA459 off-target site OT1 (SEQ ID NO: 1095)
[6] = GA459 off-target site OT3 (SEQ ID NO: 1096)

Row | Molecule | editing efficiency at the on-target site ([1]; primary human hepatocytes) | Human hepatocytes- Editing % 625, rep 1 (human TTR gene) | Human hepatocytes- Editing % 625, rep 2 (human TTR gene) | Human hepatocytes- Editing % 1250, rep 1 (human TTR gene) | Human hepatocytes- Editing % 1250, rep 2 (human TTR gene) | Human hepatocytes- Editing % 2500, rep 1 (human TTR gene) | Human hepatocytes- Editing % 2500, rep 2 (human TTR gene) | editing activity (percent splice editing) in human hepatocytes (human TTR gene) | off-target editing observed at candidate off-target sites [1] | also measured
1 | GA457: guide RNA, spacer 5′-GCCAUCCUGCCAAGAAUGAG-3′ (SEQ ID NO: 472), human TTR | high editing efficiency | 17.24% | 15.39% | 26.49% | 24.86% | 33.96% | 31.31% | high editing activity |  | net editing at off-target sites ([1]; 47 candidate off-target sites, primary human hepatocytes): less than 0.4%
2 | antibodies of the human prealbumin (TTR) ELISA kit (Abcam, ab231920) (antibody) |  |  |  |  |  |  |  |  |  | cross-reactivity [2]: 4%
3 | GA461: guide RNA, spacer 5′-UACUCACCUCUGCAUGCUCA-3′ (SEQ ID NO: 476) (nucleic acid, chemistry not given here) guide: TACTCACCTCTGCATGCTCAGTTTTAGAGCTAGAAATAGCAAGTTAAAATAAGGCTAGTCCGTTATCAACTTGAAAAAGTGGCACCGAGTCGGTGCTTTT | high editing efficiency | 21.81% | 22.31% | 32.82% | 32.38% | 40.42% | 39.43% | high editing activity | little to no off-target editing | Cyno hepatocytes- Editing % 156.25 [3]: 0.07%; Cyno hepatocytes- Editing % 312.5 [3]: 7.45%; Cyno hepatocytes- Editing % 625 [3]: 13.16%; Cyno hepatocytes- Editing % 1250 [3]: 19.46%; Cyno hepatocytes- Editing % 2500 [3]: 29.8%; Cyno hepatocytes- Editing % 5000 [3]: 37.53%; editing activity in cynomolgus primary hepatocytes [3]: high editing activity
4 | GA460: guide RNA, spacer 5′-UAUAGGAAAACCAGUGAGUC-3′ (SEQ ID NO: 475) (nucleic acid, chemistry not given here) guide: TATAGGAAAACCAGTGAGTCGTTTTAGAGCTAGAAATAGCAAGTTAAAATAAGGCTAGTCCGTTATCAACTTGAAAAAGTGGCACCGAGTCGGTGCTTTT | high editing efficiency | 23.77% | 22.27% | 38.33% | 35.8% | 47.61% | 47.79% | high editing activity | little to no off-target editing | Cyno hepatocytes- Editing % 156.25 [3]: 1.62%; Cyno hepatocytes- Editing % 312.5 [3]: 11.22%; Cyno hepatocytes- Editing % 625 [3]: 18.44%; Cyno hepatocytes- Editing % 1250 [3]: 31.71%; Cyno hepatocytes- Editing % 2500 [3]: 38.25%; Cyno hepatocytes- Editing % 5000 [3]: 40.16%; editing activity in cynomolgus primary hepatocytes [3]: high editing activity
5 | sgRNA_361: guide RNA, SEQ ID NO: 479 (nucleic acid) guide: mU*mA*mU*rArGrGrArArArArCrCrArGrUrGrArGrUrCrGrUrUrUrUrArGrArGrCrUrArGrArArArUrArGrCrArArGrUrUrArArArArUrArArGrGrCrUrArGrUrCrCrGrUrUrArUrCrArArCrUrUrGrArArArArArGrUrGrGrCrArCrCrGrArGrUrCrGrGrUrGrCmU*mU*mU*rU |  |  |  |  |  |  |  |  |  | splice site disruption using ABE and/or BE4 (transthyretin (TTR) gene): worked well
6 | GA459: guide RNA, spacer 5′-GCAACUUACCCAGAGGCAAA-3′ (SEQ ID NO: 474) (nucleic acid, chemistry not given here) guide: GCAACTTACCCAGAGGCAAAGTTTTAGAGCTAGAAATAGCAAGTTAAAATAAGGCTAGTCCGTTATCAACTTGAAAAAGTGGCACCGAGTCGGTGCTTTT | high editing efficiency | 3.79% | 3.89% | 5.46% | 6.15% | 8.5% | 8.69% |  | little to no off-target editing | SUM Editing %- Human Primary Hepatocytes Treat rep 1 [1, 4]: 14.17%; SUM Editing %- Human Primary Hepatocytes Treat rep 2 [1, 4]: 14.29%; SUM Editing %- Human Primary Hepatocytes Treat rep 1 [1, 5]: 1.19%; SUM Editing %- Human Primary Hepatocytes Treat rep 2 [1, 5]: 1.25%; SUM Editing %- Human Primary Hepatocytes Treat rep 1 [1, 6]: 0.98%; SUM Editing %- Human Primary Hepatocytes Treat rep 2 [1, 6]: 0.82%
7 | sgRNA_362: guide RNA, SEQ ID NO: 480 (nucleic acid) guide: mU*mA*mC*rUrCrArCrCrUrCrUrGrCrArUrGrCrUrCrArGrUrUrUrUrArGrArGrCrUrArGrArArArUrArGrCrArArGrUrUrArArArArUrArArGrGrCrUrArGrUrCrCrGrUrUrArUrCrArArCrUrUrGrArArArArArGrUrGrGrCrArCrCrGrArGrUrCrGrGrUrGrCmU*mU*mU*rU |  |  |  |  |  |  |  |  |  | splice site disruption using ABE and/or BE4 (transthyretin (TTR) gene): worked well
